Legend:
Experiment in all cases: peptide SPOT membrane
[1] = molecular target: 15mer peptide 56 of H5 (A/Anhui/1/2005) (Influenza A virus A/Anhui/1/2005 (H5N1))
[2] = molecular target: 15mer peptide 55 of H5 (A/Anhui/1/2005) (Influenza A virus A/Anhui/1/2005 (H5N1))
[3] = molecular target: 15mer peptide 57 of H5 (A/Anhui/1/2005) (Influenza A virus A/Anhui/1/2005 (H5N1))

Measured: binding result

B1: scFv-murine IgG1 Fc fusion of clone 8 (JM6_SC-D3) (Fc fusion)
chain: MAAVTLDESGGGLQKPGGGLSLVCKASGFPFSSYSMQWVRQAPGKGLEWVAGIGNAGSYTGYGAAVKGRATISRDNGQSTVRLQLNNLRAEDTGTYYCAKSAYAGSCAGCVDSIDAWGHGTEVMVSSGSASAPKLEEGEFSEARVALTQPSSVSANPGETVKITCSGDDSWYGWYQQKSPGSAPVTVIYYNNNRPSDIPLRFSGSTSGSTSTLTITGVQADDEAVYFCGSWDRSSGAGIFGAGTTLTVLGAA
no binding: all assays above
